What was measured:
[1] = target: T1, hTRMT2A FL (WT) (Homo sapiens, UniProt Q8IZ69 1-625); experiment: EMSA; low nM KD range; poly(U) competitor; EMSA: 50 mM HEPES-NaOH pH 7.5, 150 mM NaCl, 4% glycerol, 2.5 ng/ul poly(U), 5 nM RNA, 0-1.25 uM protein (final, as stated), 20 min room temperature; SPR: 150 mM NaCl, 50 mM HEPES-NaOH 7.5, 0.05% Tween, 25 C; details: protein: recombinant; tags: N-terminal His-SUMO tag cleaved; label: 5'-32P; tRNA cloverleaf
T1 sequence: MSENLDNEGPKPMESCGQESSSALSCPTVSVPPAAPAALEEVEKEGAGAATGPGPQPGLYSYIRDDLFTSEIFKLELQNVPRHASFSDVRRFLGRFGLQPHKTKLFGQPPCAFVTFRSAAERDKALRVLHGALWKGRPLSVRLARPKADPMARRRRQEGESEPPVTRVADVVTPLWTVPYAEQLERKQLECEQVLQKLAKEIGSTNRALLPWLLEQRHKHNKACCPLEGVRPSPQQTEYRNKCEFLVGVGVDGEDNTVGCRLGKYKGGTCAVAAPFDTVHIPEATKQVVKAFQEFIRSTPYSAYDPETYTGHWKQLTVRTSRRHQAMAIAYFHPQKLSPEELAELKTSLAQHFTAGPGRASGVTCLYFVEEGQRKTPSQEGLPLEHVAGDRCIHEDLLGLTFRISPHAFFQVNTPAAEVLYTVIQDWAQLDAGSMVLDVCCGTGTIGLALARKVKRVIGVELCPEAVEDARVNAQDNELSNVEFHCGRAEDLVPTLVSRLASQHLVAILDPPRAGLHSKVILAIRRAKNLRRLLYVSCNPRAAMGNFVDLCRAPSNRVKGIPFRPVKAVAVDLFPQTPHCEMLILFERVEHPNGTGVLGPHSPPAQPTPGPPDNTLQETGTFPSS

[2] = target: T1, hTRMT2A FL (WT); experiment: SPR; steady-state fit, apparent KD; EMSA: 50 mM HEPES-NaOH pH 7.5, 150 mM NaCl, 4% glycerol, 2.5 ng/ul poly(U), 5 nM RNA, 0-1.25 uM protein (final, as stated), 20 min room temperature; SPR: 150 mM NaCl, 50 mM HEPES-NaOH 7.5, 0.05% Tween, 25 C; details: protein: recombinant; tags: N-terminal His-SUMO tag cleaved; label: 3' biotin; tRNA cloverleaf
[3] = target: T2, hTRMT2A CDM (catalytic death mutant) (Homo sapiens, UniProt Q8IZ69 1-625, E76A;K104E;F113A;K242A;F409A;Q411A;D510A;C538A); experiment: as above; details: protein: recombinant; tags: N-terminal His-SUMO tag cleaved; label: 3' biotin; tRNA cloverleaf
T2 sequence: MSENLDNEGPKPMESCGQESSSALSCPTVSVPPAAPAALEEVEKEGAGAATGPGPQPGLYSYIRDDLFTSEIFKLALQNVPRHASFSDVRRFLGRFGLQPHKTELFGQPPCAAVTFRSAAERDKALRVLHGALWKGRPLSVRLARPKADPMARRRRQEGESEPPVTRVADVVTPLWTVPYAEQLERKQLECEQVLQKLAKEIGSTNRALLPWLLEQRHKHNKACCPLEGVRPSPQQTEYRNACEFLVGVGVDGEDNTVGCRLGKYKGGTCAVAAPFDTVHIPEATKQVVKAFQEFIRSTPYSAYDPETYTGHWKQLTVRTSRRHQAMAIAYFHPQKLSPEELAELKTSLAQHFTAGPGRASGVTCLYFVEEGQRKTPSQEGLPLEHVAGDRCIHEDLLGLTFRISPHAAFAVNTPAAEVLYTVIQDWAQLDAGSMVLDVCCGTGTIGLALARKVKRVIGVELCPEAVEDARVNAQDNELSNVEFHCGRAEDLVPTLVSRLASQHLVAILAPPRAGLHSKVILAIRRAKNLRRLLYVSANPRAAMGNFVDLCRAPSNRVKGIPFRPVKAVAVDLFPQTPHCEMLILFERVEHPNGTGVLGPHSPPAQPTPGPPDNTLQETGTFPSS

[4] = target: T1, hTRMT2A FL (WT); experiment: size exclusion chromatography; 1:1 mix; elution shift 17.41 to 15.46 ml; EMSA: 50 mM HEPES-NaOH pH 7.5, 150 mM NaCl, 4% glycerol, 2.5 ng/ul poly(U), 5 nM RNA, 0-1.25 uM protein (final, as stated), 20 min room temperature; SPR: 150 mM NaCl, 50 mM HEPES-NaOH 7.5, 0.05% Tween, 25 C; details: protein: recombinant; tags: N-terminal His-SUMO tag cleaved; tRNA cloverleaf
[5] = target: T1, hTRMT2A FL (WT); experiment: EMSA; low nM KD range; shift already at 60 nM; poly(U) competitor; EMSA: 50 mM HEPES-NaOH pH 7.5, 150 mM NaCl, 4% glycerol, 2.5 ng/ul poly(U), 5 nM RNA, 0-1.25 uM protein (final, as stated), 20 min room temperature; SPR: 150 mM NaCl, 50 mM HEPES-NaOH 7.5, 0.05% Tween, 25 C; details: protein: recombinant; tags: N-terminal His-SUMO tag cleaved; label: 5'-32P; tRNA cloverleaf
[6] = target: T2, hTRMT2A CDM (catalytic death mutant); experiment: EMSA; similar to WT, nM KD range, more supershifts; poly(U) competitor; EMSA: 50 mM HEPES-NaOH pH 7.5, 150 mM NaCl, 4% glycerol, 2.5 ng/ul poly(U), 5 nM RNA, 0-1.25 uM protein (final, as stated), 20 min room temperature; SPR: 150 mM NaCl, 50 mM HEPES-NaOH 7.5, 0.05% Tween, 25 C; details: protein: recombinant; tags: N-terminal His-SUMO tag cleaved; label: 5'-32P; tRNA cloverleaf

B1: tRNAAla-AGC (A54) (structured_RNA)
RNA: GGGGAAUUAGCUCAGGCGGUAGAGCGCUCGCUUAGCAUGCGAGAGGUAGCGGGAUCGACGCCCGCAUUCUCCA
binding result [1]: binds

B2: tRNAGln-TTG, 3' biotin (structured_RNA)
RNA: GGUCCCAUGGUGUAAUGGUUAGCACUCUGGACUUUGAAUCCAGCGAUCCGAGUUCAAAUCUCGGUGGGACCUCCA
modifications: 3' biotin
Kd [2]: 306 ± 60 nM | Kd [3]: 428 ± 71 nM

B3: tRNAGln U54G (structured_RNA)
RNA: GGUCCCAUGGUGUAAUGGUUAGCACUCUGGACUUUGAAUCCAGCGAUCCGAGGUCAAAUCUCGGUGGGACCUCCA
binding result [1]: binds

B4: tRNAGln-TTG, unlabeled (structured_RNA)
RNA: GGUCCCAUGGUGUAAUGGUUAGCACUCUGGACUUUGAAUCCAGCGAUCCGAGUUCAAAUCUCGGUGGGACCUCCA
binding result [4]: binds

B5: tRNAGln-TTG (structured_RNA)
RNA: GGUCCCAUGGUGUAAUGGUUAGCACUCUGGACUUUGAAUCCAGCGAUCCGAGUUCAAAUCUCGGUGGGACCUCCA
binding result [5]: binds | binding result [6]: binds
